T1: TIA1 RRM2-3 (Homo sapiens, UniProt P31483-2 93-274)
T1 sequence: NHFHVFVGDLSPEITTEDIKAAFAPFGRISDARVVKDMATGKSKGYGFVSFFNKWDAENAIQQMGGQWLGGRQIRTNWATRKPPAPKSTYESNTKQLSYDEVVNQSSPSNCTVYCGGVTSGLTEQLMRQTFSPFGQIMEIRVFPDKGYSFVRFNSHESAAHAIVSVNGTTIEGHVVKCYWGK

T2: TIA1 RRM2_3 (human, UniProt P31483-2 93-274)
T2 sequence: T1 sequence


target: T1, TIA1 RRM2-3; assay: EMSA; 10 mM sodium phosphate pH 6.5, 50 mM NaCl, 1 mM DTT; room temperature, 20 min; 1.2% agarose; protein 0.1-10 uM; RNA annealed in 10 mM Tris pH 7.5, 100 mM KCl; conditions: tags: His6-SUMO (cleaved; BamHI linker Ser or Gly-Ser may stay); label: 5' Cy3

Going from UGUUCUCUAAACGAACGGGAA (structured_RNA) [SL3-TL-G3] to UGUUCUCUGAACGAACUUUAA (structured_RNA) [SL3 A68G], the Kd falls from 2770 ± 630 nM to 900 ± 110 nM (3.1-fold).

First: UGUUCUCUAAACGAACUCUAA (structured_RNA) [SL3 U77C]
Second: UGUUCUCUAAACGAACUAUAA (structured_RNA) [SL3 U77A]
The Kd of the first is 3.6-fold lower: 1280 ± 180 nM for the first, 4660 ± 1540 nM for the second.

First: UGUUCUCUAAACGAACAUUAA (structured_RNA) [SL3 U76A]
Second: UGUUCUCUCAACGAACUUUAA (structured_RNA) [SL3 A68C]
The Kd of the first is 8.4-fold higher: 6160 ± 1850 nM for the first, 730 ± 80 nM for the second. The second binds more tightly here.

UGUUCUCUAAACGAACUGUAA (structured_RNA) [SL3 U77G] and UGUUCUCCAAACGAACUUUAA (structured_RNA) [SL3 U67C] are within error of each other in Kd: 5770 ± 1460 nM for the first, 3340 ± 1040 nM for the second.

First: UGUUCUCUAAACGAACGUUAA (structured_RNA) [SL3 U76G]
Second: UGUUCUCUAAACGAACUUCAA (structured_RNA) [SL3 U78C]
The Kd of the first is 2.9-fold higher: 3870 ± 1250 nM for the first, 1340 ± 190 nM for the second.

Going from UGUUCUCUAAACGAACUUAAA (structured_RNA) [SL3 U78A] to UGUUCUCUAAACGAACCCCAA (structured_RNA) [SL3-TL-C3], the Kd falls from 7540 ± 2120 nM to 2220 ± 360 nM (3.4-fold).

target: T2, TIA1 RRM2_3; assay: EMSA; EMSA: 10 mM sodium phosphate pH 6.5, 50 mM NaCl, 1 mM DTT, 1 U/ul SUPERase-In, room temperature 20 min, native 1.2% agarose; RNA annealed in 10 mM Tris-HCl pH 7.5, 100 mM KCl; conditions: protein: recombinant; tags: His6-SUMO removed by SUMO protease; label: 5'-Cy3; hairpin

UGUUCCCCCCCCGAACUUUAA (structured_RNA) [SL3-HP-C7] and UGUUCUCUAAACGAACUUCAA (structured_RNA) [SL3 U78C] are within error of each other in Kd: 1950 ± 440 nM for the first, 1340 ± 190 nM for the second.

UGUUCUCUACACGAACUUUAA (structured_RNA) [SL3 A69C] and UGUUCUCUUAACGAACUUUAA (structured_RNA) [SL3 A68U] are within error of each other in Kd: 420 ± 40 nM for the first, 460 ± 50 nM for the second.

Going from UGGGCUCUAAACGCCCUUUAA (structured_RNA) [SL3-GC] to UGUUCUUUUUUUGAACUUUAA (structured_RNA) [SL3-HP-U7], the Kd falls from 5650 ± 1700 nM to 540 ± 30 nM (10-fold). The second binds more tightly here.

same assay, conditions: protein: recombinant; tags: His6-SUMO removed by SUMO protease; label: 5'-Cy3; hairpin, 1-nt 3' tail

Work on UGUUCUCUAAACGAACU (structured_RNA) [SL3-TL1] yielded a Kd of 2860 ± 550 nM.

same assay, conditions: protein: recombinant; tags: His6-SUMO removed by SUMO protease; label: 5'-Cy3; hairpin, 3-nt loop

Work on UGUUCUAAGAACUUUAA (structured_RNA) [SL3-HP3] yielded a Kd of 3870 ± 1060 nM.

target: T2, TIA1 RRM2_3; assay: as above; conditions: protein: recombinant; tags: His6-SUMO removed by SUMO protease; label: 5'-Cy3; hairpin; remark: another data set of the same source

UGUUCUCUGAACGAACUUUAA (structured_RNA) [SL3 A68G] and UGUUCUCUAAACGAACUCUAA (structured_RNA) [SL3 U77C] are within error of each other in binding signal: 0.09 ± 0.1 kcal/mol ddG vs WT SL3 for the first, 0.29 ± 0.11 kcal/mol ddG vs WT SL3 for the second.

UGUUCUCUAAACGAACUAUAA (structured_RNA) [SL3 U77A] and UGUUCUCUAAACGAACAUUAA (structured_RNA) [SL3 U76A] are within error of each other in binding signal: 1.05 ± 0.2 kcal/mol ddG vs WT SL3 for the first, 1.22 ± 0.2 kcal/mol ddG vs WT SL3 for the second.

Going from UGUUCUCUCAACGAACUUUAA (structured_RNA) [SL3 A68C] to UGUUCUCUAAACGAACUGUAA (structured_RNA) [SL3 U77G], the binding signal rises from -0.04 ± 0.1 kcal/mol ddG vs WT SL3 to 1.18 ± 0.17 kcal/mol ddG vs WT SL3.

UGUUCUCCAAACGAACUUUAA (structured_RNA) [SL3 U67C] and UGUUCUCUAAACGAACGUUAA (structured_RNA) [SL3 U76G] are within error of each other in binding signal: 0.85 ± 0.21 kcal/mol ddG vs WT SL3 for the first, 0.94 ± 0.21 kcal/mol ddG vs WT SL3 for the second.

UGUUCUCUAAACGAACUUAAA (structured_RNA) [SL3 U78A] showed a binding signal of 1.34 ± 0.19 kcal/mol ddG vs WT SL3.
